Assay [1] addresses T1, Pfu Cas3 HD V187E (Pyrococcus furiosus, UniProt Q8U336 1-237, limits assumed).
T1 construct: The pull-down method speaks of an 'untagged Pfu Cas3 complex'; also called Cas3 V187E
T1 sequence 1: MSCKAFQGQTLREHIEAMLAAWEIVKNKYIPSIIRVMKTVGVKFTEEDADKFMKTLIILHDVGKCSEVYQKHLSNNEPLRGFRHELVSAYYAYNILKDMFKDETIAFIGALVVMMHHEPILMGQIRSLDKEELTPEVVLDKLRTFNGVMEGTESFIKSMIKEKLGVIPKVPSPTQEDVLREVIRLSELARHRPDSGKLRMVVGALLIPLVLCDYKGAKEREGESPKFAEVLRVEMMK
T1 sequence 2: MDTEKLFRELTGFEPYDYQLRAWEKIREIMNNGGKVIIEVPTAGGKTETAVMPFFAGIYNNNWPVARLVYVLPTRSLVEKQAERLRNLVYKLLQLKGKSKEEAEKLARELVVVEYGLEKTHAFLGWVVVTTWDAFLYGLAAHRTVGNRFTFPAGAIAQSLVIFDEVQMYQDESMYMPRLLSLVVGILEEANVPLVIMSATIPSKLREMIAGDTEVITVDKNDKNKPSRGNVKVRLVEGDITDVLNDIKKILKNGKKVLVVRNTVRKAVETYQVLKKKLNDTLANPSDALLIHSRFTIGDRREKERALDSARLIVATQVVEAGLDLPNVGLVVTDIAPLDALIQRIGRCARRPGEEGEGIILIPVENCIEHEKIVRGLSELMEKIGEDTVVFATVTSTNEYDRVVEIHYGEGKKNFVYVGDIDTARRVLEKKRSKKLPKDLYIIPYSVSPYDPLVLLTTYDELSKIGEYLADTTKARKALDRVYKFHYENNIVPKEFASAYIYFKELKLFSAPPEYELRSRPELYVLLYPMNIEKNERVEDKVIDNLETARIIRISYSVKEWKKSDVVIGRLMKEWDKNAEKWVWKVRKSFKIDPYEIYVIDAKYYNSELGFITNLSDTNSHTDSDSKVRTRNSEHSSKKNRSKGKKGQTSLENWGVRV
Kind of assay: Strep-tag pull-down, SDS-PAGE. The source says:
(§1) Binding of Pfu Cas3 effectively eliminates the severe domain movements in Cas8a NTD, and rigidifies the rest of the inner belly subunits in place (FIG. 3A-B). The lockdown effect is achieved through an extensive Cas3-Cas8a interface that spans across the NTD and CTD of Cas8a, which prevents the hinge motion in between the two domains. […] To validate structural observations, we mutagenized three conserved interface residues on Cas3 individually and in combination, two from the HD nuclease (V187E, L139A) and one from the helicase subunit (V418A). In Strep-tag pull-down experiments, each mutation reduced the affinity between Cas3 and Cascade, albeit to various extents. In particular, Cas3 HD V187E and HD L139A/HEL V418A completely disrupted Cas3 interaction with Cascade (FIG. 19). Thus, in embodiments, any Cas3 sequence that is at least 85% similar to a Pfu Cas3 may retain the described wild type amino acids.
(§2) 15 μg of strep-tagged Pfu Cascade and 15 μg of untagged Pfu Cas3 complex were mixed and incubated with 10 μL of strep resin at 4° C. for 30 min in a binding buffer (50 mM HEPES pH7.5, 10% glycerol, 300 mM NaCl), in a total assay volume of 50 μL. […]

The target in assay [2] is T2, Pfu Cas3 HD L139A/HEL V418A (Pyrococcus furiosus, UniProt Q8U336 1-237, limits assumed).
T2 construct: tags as for m8
T2 sequence 1: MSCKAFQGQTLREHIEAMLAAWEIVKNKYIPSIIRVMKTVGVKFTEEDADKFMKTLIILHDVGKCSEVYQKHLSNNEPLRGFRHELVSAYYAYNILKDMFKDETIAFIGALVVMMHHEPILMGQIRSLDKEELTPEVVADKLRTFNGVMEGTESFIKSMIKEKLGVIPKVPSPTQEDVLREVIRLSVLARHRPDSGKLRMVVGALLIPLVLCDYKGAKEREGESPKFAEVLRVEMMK
T2 sequence 2: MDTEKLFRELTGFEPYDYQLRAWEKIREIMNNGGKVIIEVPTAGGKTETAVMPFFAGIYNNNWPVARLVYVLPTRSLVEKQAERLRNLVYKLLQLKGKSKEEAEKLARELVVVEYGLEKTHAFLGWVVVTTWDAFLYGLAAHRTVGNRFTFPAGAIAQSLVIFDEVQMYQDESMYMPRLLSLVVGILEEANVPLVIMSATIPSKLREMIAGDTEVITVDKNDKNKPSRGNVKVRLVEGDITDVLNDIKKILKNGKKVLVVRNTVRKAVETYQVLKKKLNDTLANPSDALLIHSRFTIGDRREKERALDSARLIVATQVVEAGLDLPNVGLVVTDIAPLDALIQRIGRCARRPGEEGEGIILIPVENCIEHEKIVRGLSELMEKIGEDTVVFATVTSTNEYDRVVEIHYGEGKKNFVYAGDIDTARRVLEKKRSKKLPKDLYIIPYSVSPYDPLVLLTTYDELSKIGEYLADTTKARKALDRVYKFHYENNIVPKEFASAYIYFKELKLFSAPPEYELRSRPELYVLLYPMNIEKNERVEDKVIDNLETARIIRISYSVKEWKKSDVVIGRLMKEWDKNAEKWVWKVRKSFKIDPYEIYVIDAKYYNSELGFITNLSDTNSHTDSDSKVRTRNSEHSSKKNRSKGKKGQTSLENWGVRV
Kind of assay: Strep-tag pull-down, SDS-PAGE.
Text: as §1, §2

Results on one molecule are retold here after patent publication US20240376454A1 (CORNELL UNIVERSITY, published 2024).

B1: Pfu Cascade (other)
chain 1: not shown
chain 2: MDILLVCLRFPFFSVAKRSYQVRTSFLLPPPSALKGALAKGLILLKPEKYASSSLDEAALKAIKEIESKLVDIKAVSVAPLSPLIRNAFLLKRLRNLESGSNAEKSDAMRREYTFTRELLVAYIFKNLTQEEKNLYLKAAMLIDVIGDTESLATPVWASFVKPEDKKAPLAFSAPYTEIYSLLSSKIQAKGKIRMYIEKMRVSPEYSKTKGPQEEIFYLPIEERRYKRIVYYARTIYPPEVEKALTVDGEVLGIWIPKNSSESGSHHHHHHH
chain 3: MMYVRISGRIRLNAHSLNAQGGGGTNYIEITKTKVTVRTENGWTVVEVPAITGNMLKHWHFVGFVDYFKTTPYGVNLTERALRYNGTRFGQGETTATKANGATVQLNDEATIIKELADADVHGFLAPKTGRRRVSLVKASFILPTEDFIKEVEGERLITAIKHNRVDVDEKGAIGSSKEGTAQMLFSREYATGLYGFSIVLDLGLVGIPQGLPVKFEENQPRPNIVIDPNERKARIESALKALIPMLSGYIGANLARSFPVFKVEELVAIASEGPIPALVHGFYEDYIEANRSIIKNARALGFNIEVFTYNVDLGEDIEATKVSSVEELVANLVKMVGGKE
chain 4: MGGWIRNIGRYLSYLVDDTFEEYAYDVVDGIAKARTQEELLEGVYKALRLAPKLKKKAESKGCPPPRIPSPEDIEALEEKVEQLSNPKDLRKLAVSLALWAFASWNNCPKKGKGTEGGVE
notes: Ribonucleoprotein complex that also holds the chimeric crRNA (Pfu 5'-handle, E. coli 3'-handle); also called I-A Pfu Cascade; apo Pfu Cascade
As for B1, the binding result in assay [1] and in assay [2] was “no binding” in each case.
